This note sets out measurements from US20150344570A1 (published 2015).

The target of the experiment is T1, FcγRIIIa extracellular domain with C-terminal His tag (human, UniProt P08637 17-208).
T1 construct: extracellular domain; also called FcgRIIIa; 3a; not shown: His tag attached to the C terminus
Description: SPR Biacore, captured antibody, FcγR analyte, relative binding. On the procedure:
Analysis of interaction between objective antibody and the FcγR was carried out using Biacore T100 (GE Healthcare). HBS-EP+ (GE Healthcare) was used as the running buffer, and the measurement temperature was set to 25° C. Chips produced by immobilizing the antigen peptide by the amine coupling method to a Series S Sencor Chip CM5 (GE Healthcare), or alternatively, chips produced by allowing preliminarily biotinylated antigen peptides to interact with and immobilize onto a Series S Sensor Chip SA (certified) (GE Healthcare) were used. Antibodies of interest were captured onto an antigen peptide-immobilized chip, and allowed to interact to each FcγR diluted with running buffer. To regenerate and repeatedly use the chip, the antibodies captured on the chip were washed off by reacting 10 mM glycine-HCl, pH 1.5.
Background: SPR reads the build-up and loss of mass on a sensor chip optically.

T1 sequence (P08637 17-208): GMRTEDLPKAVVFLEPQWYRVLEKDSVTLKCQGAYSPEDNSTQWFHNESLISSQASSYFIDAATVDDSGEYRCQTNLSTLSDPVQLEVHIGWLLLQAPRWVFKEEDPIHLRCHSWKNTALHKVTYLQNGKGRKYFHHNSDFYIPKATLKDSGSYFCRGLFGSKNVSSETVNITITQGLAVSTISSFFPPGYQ

B1: GpH7-A5/GpH7-B3 variant H268_13S/GpL16-k0 (antibody, human IgG1, kappa)
heavy 1: not shown
heavy 2: not shown
light: DIVMTQSPLSLPVTPGEPASISCQASESLVHSNRNTYLHWYLQKPGQSPQLLIYKVSNRFSGVPDRFSGSGSGTDFTLKISRVEAEDVGVYYCSQNTHVPPTFGQGTKVEIERTVAAPSVFIFPPSDEQLKSGTASVVCLLNNFYPREAKVQWKVDNALQSGNSQESVTEQDSKDSTYSLSSTLTLSKADYEKHKVYACEVTHQGLSSPVTKSFNRGEC
notes: also called He Ab H268_13S
With B1, the He/Con_3a is 122 % of HeCon Ab GpH7-A5/GpH7-B3/GpL16-k0 (=100).

B2: GpH7-A5/GpH7-B3 variant T335_10E/GpL16-k0 (antibody, human IgG1, kappa)
heavy 1: not shown
heavy 2: not shown
light: B1 light
notes: also called He Ab T335_10E
For the molecule B2, the He/Con_3a was 107 % of HeCon Ab GpH7-A5/GpH7-B3/GpL16-k0 (=100).

B3: GpH7-A5/GpH7-B3 variant I332_10E/GpL16-k0 (antibody, human IgG1, kappa)
heavy 1: not shown
heavy 2: not shown
light: B1 light
notes: also called He Ab I332_10E
For the molecule B3, the He/Con_3a was 233 % of HeCon Ab GpH7-A5/GpH7-B3/GpL16-k0 (=100).

B4: GpH7-A5/GpH7-B3 variant K334_07I/GpL16-k0 (antibody, human IgG1, kappa)
heavy 1: not shown
heavy 2: not shown
light: B1 light
notes: also called He Ab K334_07I
As for B4, the He/Con_3a was 151 % of HeCon Ab GpH7-A5/GpH7-B3/GpL16-k0 (=100).

B5: GpH7-A5/GpH7-B3 variant Q295_14T/GpL16-k0 (antibody, human IgG1, kappa)
heavy 1: not shown
heavy 2: not shown
light: B1 light
notes: also called He Ab Q295_14T
Consider B5, for which the He/Con_3a is 115 % of HeCon Ab GpH7-A5/GpH7-B3/GpL16-k0 (=100).

B6: GpH7-A5/GpH7-B3 variant S337_09D/GpL16-k0 (antibody, human IgG1, kappa)
heavy 1: not shown
heavy 2: not shown
light: B1 light
notes: also called He Ab S337_09D
Turning to B6, the He/Con_3a was 110 % of HeCon Ab GpH7-A5/GpH7-B3/GpL16-k0 (=100).

B7: GpH7-A5/GpH7-B3 variant K326_06M/GpL16-k0 (antibody, human IgG1, kappa)
heavy 1: not shown
heavy 2: not shown
light: B1 light
notes: also called He Ab K326_06M
Take B7: the He/Con_3a is 115 % of HeCon Ab GpH7-A5/GpH7-B3/GpL16-k0 (=100).

B8: GpH7-A5/GpH7-B3 variant I336_10E/GpL16-k0 (antibody, human IgG1, kappa)
heavy 1: not shown
heavy 2: not shown
light: B1 light
notes: also called He Ab I336_10E
Take B8: the He/Con_3a is 119 % of HeCon Ab GpH7-A5/GpH7-B3/GpL16-k0 (=100).

B9: GpH7-A5/GpH7-B3 variant K326_10E/GpL16-k0 (antibody, human IgG1, kappa)
heavy 1: not shown
heavy 2: not shown
light: B1 light
notes: also called He Ab K326_10E
B9: the He/Con_3a was 124 % of HeCon Ab GpH7-A5/GpH7-B3/GpL16-k0 (=100).

B10: GpH7-A5/GpH7-B3 variant I336_03V/GpL16-k0 (antibody, human IgG1, kappa)
heavy 1: not shown
heavy 2: not shown
light: B1 light
notes: also called He Ab I336_03V
Regarding B10, the He/Con_3a is 112 % of HeCon Ab GpH7-A5/GpH7-B3/GpL16-k0 (=100).

B11: GpH7-A5/GpH7-B3 variant K334_04F/GpL16-k0 (antibody, human IgG1, kappa)
heavy 1: not shown
heavy 2: not shown
light: B1 light
notes: also called He Ab K334_04F
As to B11, the He/Con_3a is 148 % of HeCon Ab GpH7-A5/GpH7-B3/GpL16-k0 (=100).

B12: GpH7-A5/GpH7-B3 variant I336_06M/GpL16-k0 (antibody, human IgG1, kappa)
heavy 1: not shown
heavy 2: not shown
light: B1 light
notes: also called He Ab I336_06M
B12: the He/Con_3a was 109 % of HeCon Ab GpH7-A5/GpH7-B3/GpL16-k0 (=100).

B13: GpH7-A5/GpH7-B3 variant S239_09D/GpL16-k0 (antibody, human IgG1, kappa)
heavy 1: not shown
heavy 2: not shown
light: B1 light
notes: also called He Ab S239_09D
In the case of B13, the He/Con_3a was 166 % of HeCon Ab GpH7-A5/GpH7-B3/GpL16-k0 (=100).

B14: GpH7-A5/GpH7-B3 variant S267_02A/GpL16-k0 (antibody, human IgG1, kappa)
heavy 1: not shown
heavy 2: not shown
light: B1 light
notes: also called He Ab S267_02A
In the case of B14, the He/Con_3a is 150 % of HeCon Ab GpH7-A5/GpH7-B3/GpL16-k0 (=100).

B15: GpH7-A5/GpH7-B3 variant K334_10E/GpL16-k0 (antibody, human IgG1, kappa)
heavy 1: not shown
heavy 2: not shown
light: B1 light
notes: also called He Ab K334_10E
Consider B15, for which the He/Con_3a is 181 % of HeCon Ab GpH7-A5/GpH7-B3/GpL16-k0 (=100).

B16: GpH7-A5/GpH7-B3 variant K326_14T/GpL16-k0 (antibody, human IgG1, kappa)
heavy 1: not shown
heavy 2: not shown
light: B1 light
notes: also called He Ab K326_14T
Regarding B16, the He/Con_3a is 126 % of HeCon Ab GpH7-A5/GpH7-B3/GpL16-k0 (=100).

B17: GpH7-A5/GpH7-B3 variant K334_18N/GpL16-k0 (antibody, human IgG1, kappa)
heavy 1: not shown
heavy 2: not shown
light: B1 light
notes: also called He Ab K334_18N
For B17, the He/Con_3a was 136 % of HeCon Ab GpH7-A5/GpH7-B3/GpL16-k0 (=100).

B18: GpH7-A5/GpH7-B3 variant T335_07I/GpL16-k0 (antibody, human IgG1, kappa)
heavy 1: not shown
heavy 2: not shown
light: B1 light
notes: also called He Ab T335_07I
For B18, the He/Con_3a is 107 % of HeCon Ab GpH7-A5/GpH7-B3/GpL16-k0 (=100).

B19: GpH7-A5/GpH7-B3 variant K326_19Q/GpL16-k0 (antibody, human IgG1, kappa)
heavy 1: not shown
heavy 2: not shown
light: B1 light
notes: also called He Ab K326_19Q
Turning to B19, the He/Con_3a was 106 % of HeCon Ab GpH7-A5/GpH7-B3/GpL16-k0 (=100).

B20: GpH7-A5/GpH7-B3 variant I332_02A/GpL16-k0 (antibody, human IgG1, kappa)
heavy 1: not shown
heavy 2: not shown
light: B1 light
notes: also called He Ab I332_02A
B20: the He/Con_3a is 112 % of HeCon Ab GpH7-A5/GpH7-B3/GpL16-k0 (=100).

B21: GpH7-A5/GpH7-B3 variant K334_14T/GpL16-k0 (antibody, human IgG1, kappa)
heavy 1: not shown
heavy 2: not shown
light: B1 light
notes: also called He Ab K334_14T
As to B21, the He/Con_3a was 141 % of HeCon Ab GpH7-A5/GpH7-B3/GpL16-k0 (=100).

B22: GpH7-A5/GpH7-B3 variant K326_08L/GpL16-k0 (antibody, human IgG1, kappa)
heavy 1: not shown
heavy 2: not shown
light: B1 light
notes: also called He Ab K326_08L
With B22, the He/Con_3a was 114 % of HeCon Ab GpH7-A5/GpH7-B3/GpL16-k0 (=100).

B23: GpH7-A5/GpH7-B3 variant I332_13S/GpL16-k0 (antibody, human IgG1, kappa)
heavy 1: not shown
heavy 2: not shown
light: B1 light
notes: also called He Ab I332_13S
Turning to B23, the He/Con_3a is 104 % of HeCon Ab GpH7-A5/GpH7-B3/GpL16-k0 (=100).

B24: GpH7-A5/GpH7-B3 variant I336_09D/GpL16-k0 (antibody, human IgG1, kappa)
heavy 1: not shown
heavy 2: not shown
light: B1 light
notes: also called He Ab I336_09D
As for B24, the He/Con_3a was 106 % of HeCon Ab GpH7-A5/GpH7-B3/GpL16-k0 (=100).

B25: GpH7-A5/GpH7-B3 variant I332_14T/GpL16-k0 (antibody, human IgG1, kappa)
heavy 1: not shown
heavy 2: not shown
light: B1 light
notes: also called He Ab I332_14T
Regarding B25, the He/Con_3a was 120 % of HeCon Ab GpH7-A5/GpH7-B3/GpL16-k0 (=100).

B26: GpH7-A5/GpH7-B3 variant K326_03V/GpL16-k0 (antibody, human IgG1, kappa)
heavy 1: not shown
heavy 2: not shown
light: B1 light
notes: also called He Ab K326_03V
B26: the He/Con_3a is 122 % of HeCon Ab GpH7-A5/GpH7-B3/GpL16-k0 (=100).
